From the supplement of paper PMC11246515
± gives the standard deviation of the averaged measurements.

Experiment: total protein half-life in vivo (active degradation + dilution); higher = more stable protein
[1] = E. coli NCM3722 delta-clpP delta-lon delta-hslV, growth: N-lim chemostat, doubling time 6 h
[2] = E. coli NCM3722 delta-clpP, growth: N-lim chemostat, doubling time 6 h
[3] = E. coli NCM3722 delta-hslV, growth: N-lim chemostat, doubling time 6 h
[4] = E. coli NCM3722 delta-lon, growth: N-lim chemostat, doubling time 6 h
[5] = E. coli NCM3722 delta-smpB, growth: N-lim chemostat, doubling time 6 h
[6] = wild type E. coli NCM3722, growth: C-lim chemostat, doubling time 6 h
[7] = wild type E. coli NCM3722, growth: C-lim chemostat, doubling time 12 h
[8] = wild type E. coli NCM3722, growth: N-lim chemostat, doubling time 6 h
[9] = wild type E. coli NCM3722, growth: N-lim chemostat, doubling time 12 h
[10] = wild type E. coli NCM3722, growth: P-lim chemostat, doubling time 6 h
[11] = wild type E. coli NCM3722, growth: P-lim chemostat, doubling time 12 h
[12] = wild type E. coli NCM3722, growth: C-lim chemostat, doubling time 3 h

In the case of “MAQRIFTLILLLCSTSVFAGLFDAPGRSQFVPADQAFAFDFQQNQHDLNLTWQIKDGYYLYRKQIRITPEHAKIADVQLPQGVWHEDEFYGKSEIYRDRLTLPVTINQASAGATLTVTYQGCADAGFCYPPETKTVPLSEVVANNAAPQPVSVPQQEQPTAQLPFSALWALLIGIGIAFTPCVLPMYPLISGIVLGGKQRLSTARALLLTFIYVQGMALTYTALGLVVAAAGLQFQAALQHPYVLIGLAIVFTLLAMSMFGLFTLQLPSSLQTRLTLMSNRQQGGSPGGVFVMGAIAGLICSPCTTAPLSAILLYIAQSGNMWLGGGTLYLYALGMGLPLMLITVFGNRLLPKSGPWMEQVKTAFGFVILALPVFLLERVIGDVWGLRLWSALGVAFFGWAFITSLQAKRGWMRIVQIILLAAALVSVRPLQDWAFGATHTAQTQTHLNFTQIKTVDELNQALVEAKGKPVMLDLYADWCVACKEFEKYTFSDPQVQKALADTVLLQANVTANDAQDVALLKHLNVLGLPTILFFDGQGQEHPQARVTGFMDAETFSAHLRDRQP”, the “total protein half-life in vivo” value [1] is reported as 6.33 ± 0.17 h, the “total protein half-life in vivo” value [2] is reported as 6.16 ± 0.66 h and the “total protein half-life in vivo” value [3] is reported as 5.61 ± 0.96 h. The “total protein half-life in vivo” value [4] was 6.37 ± 0.69 h, the “total protein half-life in vivo” value [5] was 5.76 ± 0.13 h and the “total protein half-life in vivo” value [6] was 5.22 ± 0.15 h. For the same sequence, the “total protein half-life in vivo” value [7] was 13.2 ± 1 h, the “total protein half-life in vivo” value [8] was 6.08 ± 0.72 h and the “total protein half-life in vivo” value [9] was 11.9 ± 0.37 h. For the same sequence, the “total protein half-life in vivo” value [10] was 5.82 ± 0.19 h and the “total protein half-life in vivo” value [11] was 12.35 ± 0.1 h.

In the case of “MAQRVQLTATVSENQLGQRLDQALAEMFPDYSRSRIKEWILDQRVLVNGKVCDKPKEKVLGGEQVAINAEIEEEARFEPQDIPLDIVYEDEDIIIINKPRDLVVHPGAGNPDGTVLNALLHYYPPIADVPRAGIVHRLDKDTTGLMVVAKTVPAQTRLVESLQRREITREYEAVAIGHMTAGGTVDEPISRHPTKRTHMAVHPMGKPAVTHYRIMEHFRVHTRLRLRLETGRTHQIRVHMAHITHPLVGDPVYGGRPRPPKGASEAFISTLRKFDRQALHATMLRLYHPISGIEMEWHAPIPQDMVELIEVMRADFEEHKDEVDWL”, the “total protein half-life in vivo” value [1] is reported as 5.82 ± 0.6 h, the “total protein half-life in vivo” value [2] is reported as 5.7 ± 0.94 h and the “total protein half-life in vivo” value [3] is reported as 5.65 ± 0.66 h. For the same sequence, the “total protein half-life in vivo” value [4] was 5.51 ± 0.46 h, the “total protein half-life in vivo” value [5] was 4.66 ± 0.21 h and the “total protein half-life in vivo” value [12] was 3.66 ± 0.34 h. The “total protein half-life in vivo” value [6] was 5.83 ± 0.07 h, the “total protein half-life in vivo” value [7] was 9.95 ± 1.4 h and the “total protein half-life in vivo” value [8] was 5.63 ± 0.2 h. For the same sequence, the “total protein half-life in vivo” value [9] was 8.47 ± 0.64 h, the “total protein half-life in vivo” value [10] was 5.72 ± 0.12 h and the “total protein half-life in vivo” value [11] was 11.2 ± 0.25 h.

With “MAQVINTNSLSLITQNNINKNQSALSSSIERLSSGLRINSAKDDAAGQAIANRFTSNIKGLTQAARNANDGISVAQTTEGALSEINNNLQRVRELTVQATTGTNSESDLSSIQDEIKSRLDEIDRVSGQTQFNGVNVLAKNGSMKIQVGANDNQTITIDLKQIDAKTLGLDGFSVKNNDTVTTSAPVTAFGATTTNNIKLTGITLSTEAATDTGGTNPASIEGVYTDNGNDYYAKITGGDNDGKYYAVTVANDGTVTMATGATANATVTDANTTKATTITSGGTPVQIDNTAGSATANLGAVSLVKLQDSKGNDTDTYALKDTNGNLYAADVNETTGAVSVKTITYTDSSGAASSPTAVKLGGDDGKTEVVDIDGKTYDSADLNGGNLQTGLTAGGEALTAVANGKTTDPLKALDDAIASVDKFRSSLGAVQNRLDSAVTNLNNTTTNLSEAQSRIQDADYATEVSNMSKAQIIQQAGNSVLAKANQVPQQVLSLLQG” the “total protein half-life in vivo” value [1] was over 8 h, the “total protein half-life in vivo” value [3] was over 8 h and the “total protein half-life in vivo” value [4] was over 8 h. The “total protein half-life in vivo” value [5] was over 8 h, the “total protein half-life in vivo” value [12] was 0.717 ± 0.2 h and the “total protein half-life in vivo” value [6] was 0.724 ± 0.37 h. For the same sequence, the “total protein half-life in vivo” value [7] was 0.956 ± 0.59 h, the “total protein half-life in vivo” value [8] was 6.3 ± 0.12 h and the “total protein half-life in vivo” value [10] was over 8 h. For the same sequence, the “total protein half-life in vivo” value [11] was over 16 h.

For “MARARGRGRRDLKSEINIVPLLDVLLVLLLIFMATAPIITQSVEVDLPDATESQAVSSNDNPPVIVEVSGIGQYTVVVEKDRLERLPPEQVVAEVSSRFKANPKTVFLIGGAKDVPYDEIIKALNLLHSAGVKSVGLMTQPI [P0ABV6]”, the “total protein half-life in vivo” value [2] was 5.42 ± 0.13 h, the “total protein half-life in vivo” value [3] was 6.44 ± 0.99 h and the “total protein half-life in vivo” value [4] was 5.7 ± 0.25 h. For the same sequence, the “total protein half-life in vivo” value [5] was 5.74 ± 0.59 h, the “total protein half-life in vivo” value [12] was 3.106 ± 0.028 h and the “total protein half-life in vivo” value [6] was 5.686 ± 0.01 h. The “total protein half-life in vivo” value [7] was 11.9 ± 0.7 h, the “total protein half-life in vivo” value [8] was 5.73 ± 0.26 h and the “total protein half-life in vivo” value [9] was 12.6 ± 0.73 h. For the same sequence, the “total protein half-life in vivo” value [10] was 5.45 ± 0.66 h and the “total protein half-life in vivo” value [11] was 11.81 ± 0.036 h.

With “MARAVHRSGLVALGIATALMASCAFAAKDVVVAVGSNFTTLDPYDANDTLSQAVAKSFYQGLFGLDKEMKLKNVLAESYTVSDDGITYTVKLREGIKFQDGTDFNAAAVKANLDRASDPANHLKRYNLYKNIAKTEAIDPTTVKITLKQPFSAFINILAHPATAMISPAALEKYGKEIGFYPVGTGPYELDTWNQTDFVKVKKFAGYWQPGLPKLDSITWRPVADNNTRAAMLQTGEAQFAFPIPYEQATLLEKNKNIELMASPSIMQRYISMNVTQKPFDNPKVREALNYAINRPALVKVAFAGYATPATGVVPPSIAYAQSYKPWPYDPVKARELLKEAGYPNGFSTTLWSSHNHSTAQKVLQFTQQQLAQVGIKAQVTAMDAGQRAAEVEGKGQKESGVRMFYTGWSASTGEADWALSPLFASQNWPPTLFNTAFYSNKQVDDFLAQALKTNDPAEKTRLYKAAQDIIWQESPWIPLVVEKLVSAHSKNLTGFWIMPDTGFSFEDADLQ” the “total protein half-life in vivo” value [1] was 5.029 ± 0.012 h, the “total protein half-life in vivo” value [2] was 5.36 ± 0.42 h and the “total protein half-life in vivo” value [3] was 6.42 ± 0.61 h. The “total protein half-life in vivo” value [4] was 6.43 ± 0.089 h, the “total protein half-life in vivo” value [5] was 5.72 ± 0.071 h and the “total protein half-life in vivo” value [12] was 3.21 ± 0.061 h. The “total protein half-life in vivo” value [6] was 6.6 ± 0.26 h, the “total protein half-life in vivo” value [7] was 13 ± 0.86 h and the “total protein half-life in vivo” value [8] was 6.04 ± 0.39 h. For the same sequence, the “total protein half-life in vivo” value [9] was 13.2 ± 0.28 h, the “total protein half-life in vivo” value [10] was 5.85 ± 0.27 h and the “total protein half-life in vivo” value [11] was 13.3 ± 0.87 h.

In the case of “MARIIVVTSGKGGVGKTTSSAAIATGLAQKGKKTVVIDFDIGLRNLDLIMGCERRVVYDFVNVIQGDATLNQALIKDKRTENLYILPASQTRDKDALTREGVAKVLDDLKAMDFEFIVCDSPAGIETGALMALYFADEAIITTNPEVSSVRDSDRILGILASKSRRAENGEEPIKEHLLLTRYNPGRVSRGDMLSMEDVLEILRIKLVGVIPEDQSVLRASNQGEPVILDINADAGKAYADTVERLLGEERPFRFIEEEKKGFLKRLFGG [P0AEZ3]”, the “total protein half-life in vivo” value [1] is reported as 5.31 ± 0.21 h, the “total protein half-life in vivo” value [2] is reported as 5.22 ± 0.21 h and the “total protein half-life in vivo” value [3] is reported as 5.442 ± 0.017 h. The “total protein half-life in vivo” value [4] was 5.66 ± 0.15 h, the “total protein half-life in vivo” value [5] was 4.87 ± 0.023 h and the “total protein half-life in vivo” value [12] was 2.94 ± 0.16 h. The “total protein half-life in vivo” value [6] was 5.54 ± 0.16 h, the “total protein half-life in vivo” value [7] was 10.1 ± 0.8 h and the “total protein half-life in vivo” value [8] was 5.17 ± 0.36 h. For the same sequence, the “total protein half-life in vivo” value [9] was 9.98 ± 0.53 h, the “total protein half-life in vivo” value [10] was 4.93 ± 0.2 h and the “total protein half-life in vivo” value [11] was 9.29 ± 0.22 h.

With “MARINRISITLCALLFTTLPLTPMAHASKQARESSATTHITKKADKKKSTATTKKTQKTAKKAASKSTTKSKTASSVKKSSITASKNAKTRSKHAVNKTASASFTEKCTKRKGYKSHCVKVKNAASGTLADAHKAKVQKATKVAMNKLMQQIGKPYRWGGSSPRTGFDCSGLVYYAYKDLVKIRIPRTANEMYHLRDAAPIERSELKNGDLVFFRTQGRGTADHVGVYVGNGKFIQSPRTGQEIQITSLSEDYWQRHYVGARRVMTPKTLR” the “total protein half-life in vivo” value [1] was over 8 h, the “total protein half-life in vivo” value [3] was 3.67 h and the “total protein half-life in vivo” value [4] was 2.15 h. For the same sequence, the “total protein half-life in vivo” value [12] was 2.57 ± 0.19 h, the “total protein half-life in vivo” value [6] was 5.435 ± 0.027 h and the “total protein half-life in vivo” value [7] was 9.36 ± 4.5 h. The “total protein half-life in vivo” value [8] was 2.63 ± 0.55 h, the “total protein half-life in vivo” value [9] was 6.47 ± 1.8 h and the “total protein half-life in vivo” value [10] was 3.69 ± 0.066 h. For the same sequence, the “total protein half-life in vivo” value [11] was 6.68 ± 0.86 h.
